Experimental data: paper PMC9771472, “Tenuous transcriptional threshold of human sex determination. II. SRY exploits water-mediated clamp at the edge of ambiguity”

Legend:
SRY HMG box Y72F [1] = molecular target: T1, SRY HMG box Y72F (human, UniProt Q05066 57-141, Y127F); assay: steady-state FRET; stopped-flow FRET; native-like affinity; koff about 4-fold faster than WT at 37 C, compensated by kon; FRET: 10 mM potassium phosphate, 10 mM Tris-HCl, 140 mM KCl, pH 8.0, 15 and 37 C, 25 nM DNA (Kd); sf-FRET 1 uM complex + 20 uM unlabelled DNA at 10, 15, 25, 37; settings: protein: recombinant; label: 5'-fluorescein (upper strand); 5'-TAMRA (lower strand), hexanyl linkers; blunt
T1 sequence (Q05066 57-141 Y127F): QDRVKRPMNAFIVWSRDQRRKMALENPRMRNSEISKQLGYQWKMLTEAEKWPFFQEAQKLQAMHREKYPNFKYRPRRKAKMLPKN

SRY HMG box Y72W [2] = molecular target: T2, SRY HMG box Y72W (human, UniProt Q05066 57-141, Y127W); assay: steady-state FRET; stopped-flow FRET; high affinity retained; slight koff increase; FRET: 10 mM potassium phosphate, 10 mM Tris-HCl, 140 mM KCl, pH 8.0, 15 and 37 C, 25 nM DNA (Kd); sf-FRET 1 uM complex + 20 uM unlabelled DNA at 10, 15, 25, 37; settings: protein: recombinant; label: 5'-fluorescein (upper strand); 5'-TAMRA (lower strand), hexanyl linkers; blunt
T2 sequence (Q05066 57-141 Y127W): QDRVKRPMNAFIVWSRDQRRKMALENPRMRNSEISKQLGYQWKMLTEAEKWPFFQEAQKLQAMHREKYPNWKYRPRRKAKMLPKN

SRY HMG box Y72C = SRY HMG box Y72C (human, UniProt Q05066 57-141, Y127C); assay: stopped-flow FRET; near-native affinity (Kd from companion paper); koff 26(+/-1.3)-fold faster than WT at 10 C; FRET: 10 mM potassium phosphate, 10 mM Tris-HCl, 140 mM KCl, pH 8.0, 15 and 37 C, 25 nM DNA (Kd); sf-FRET 1 uM complex + 20 uM unlabelled DNA at 10, 15, 25, 37; settings: protein: recombinant; label: 5'-fluorescein (upper strand); 5'-TAMRA (lower strand), hexanyl linkers; blunt
Sequence of SRY HMG box Y72C (Q05066 57-141 Y127C): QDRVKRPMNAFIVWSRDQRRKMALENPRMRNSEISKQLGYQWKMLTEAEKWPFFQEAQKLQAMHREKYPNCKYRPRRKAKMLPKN

SRY HMG box WT [3] = molecular target: T3, SRY HMG box WT (human, UniProt Q05066 57-141); assay: steady-state FRET; reference; Kd values in Table S7 not in material; FRET: 10 mM potassium phosphate, 10 mM Tris-HCl, 140 mM KCl, pH 8.0, 15 and 37 C, 25 nM DNA (Kd); sf-FRET 1 uM complex + 20 uM unlabelled DNA at 10, 15, 25, 37; settings: protein: recombinant; label: 5'-fluorescein (upper strand); 5'-TAMRA (lower strand), hexanyl linkers; blunt
T3 sequence (Q05066 57-141): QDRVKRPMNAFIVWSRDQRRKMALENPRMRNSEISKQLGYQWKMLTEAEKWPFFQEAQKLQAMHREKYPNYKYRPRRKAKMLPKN

SRY HMG box Y72H = SRY HMG box Y72H (human, UniProt Q05066 57-141, Y127H); assay: stopped-flow FRET; near-native affinity (Kd from companion paper); koff 14(+/-0.38)-fold faster than WT at 10 C; FRET: 10 mM potassium phosphate, 10 mM Tris-HCl, 140 mM KCl, pH 8.0, 15 and 37 C, 25 nM DNA (Kd); sf-FRET 1 uM complex + 20 uM unlabelled DNA at 10, 15, 25, 37; settings: protein: recombinant; label: 5'-fluorescein (upper strand); 5'-TAMRA (lower strand), hexanyl linkers; blunt
Sequence of SRY HMG box Y72H (Q05066 57-141 Y127H): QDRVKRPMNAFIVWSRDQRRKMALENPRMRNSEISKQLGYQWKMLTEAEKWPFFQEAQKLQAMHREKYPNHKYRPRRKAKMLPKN

SRY HMG box WT [4] = molecular target: T3, SRY HMG box WT; assay: NMR (1H imino, NOESY, 15N HSQC); CD; 1:1, 25 C, 10 mM K-phosphate pH 7.4, 50 mM KCl (NMR); FRET: 10 mM potassium phosphate, 10 mM Tris-HCl, 140 mM KCl, pH 8.0, 15 and 37 C, 25 nM DNA (Kd); sf-FRET 1 uM complex + 20 uM unlabelled DNA at 10, 15, 25, 37; settings: protein: recombinant; blunt
SRY HMG box Y72F [5] = molecular target: T1, SRY HMG box Y72F; assay: as above; settings: protein: recombinant; blunt
SRY HMG box Y72A = SRY HMG box Y72A (human, UniProt Q05066 57-141, Y127A); assay: CD; 25 uM each; least shifted toward A-DNA; FRET: 10 mM potassium phosphate, 10 mM Tris-HCl, 140 mM KCl, pH 8.0, 15 and 37 C, 25 nM DNA (Kd); sf-FRET 1 uM complex + 20 uM unlabelled DNA at 10, 15, 25, 37; settings: protein: recombinant; blunt
Sequence of SRY HMG box Y72A (Q05066 57-141 Y127A): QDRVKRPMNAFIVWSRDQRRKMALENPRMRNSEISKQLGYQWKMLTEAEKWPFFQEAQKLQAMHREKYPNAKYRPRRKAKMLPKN

SRY HMG box Y72W [6] = molecular target: T2, SRY HMG box Y72W; assay: CD; 25 uM each; A-form features in bound DNA; FRET: 10 mM potassium phosphate, 10 mM Tris-HCl, 140 mM KCl, pH 8.0, 15 and 37 C, 25 nM DNA (Kd); sf-FRET 1 uM complex + 20 uM unlabelled DNA at 10, 15, 25, 37; settings: protein: recombinant; blunt

Measured: binding result

B1: 15-bp SRY site, FRET-labelled (dsDNA)
DNA 1: TCGGTGATTGTTCAG
DNA 2: CTGAACAATCACCGA
binds: SRY HMG box Y72F [1] | SRY HMG box Y72W [2] | SRY HMG box Y72C | SRY HMG box WT [3] | SRY HMG box Y72H

B2: 15-bp SRY site, unlabelled (dsDNA)
DNA 1: TCGGTGATTGTTCAG
DNA 2: CTGAACAATCACCGA
binds: SRY HMG box WT [4] | SRY HMG box Y72F [5] | SRY HMG box Y72A | SRY HMG box Y72W [6]
